# Source: patent publication US20240325562A1, “INTERNALIZING BINDING MOLECULES” (LinXis B.V., priority 2020, published 2024)
# Experiments:
# [1] = In vivo pharmacokinetics in rats, serum ELISA on hIGF2R-ECD; set-up: species or system Sprague-Dawley rats
# Procedure: (§1) The in vivo pharmacokinetic properties of 13F11-13E8-ABD (F11E8-ABD; with ABD) and 13F11-13E8 (F11E8; without ABD) were compared in healthy Sprague-Dawley rats. In brief, rats were dosed intravenously with approximately 3 mg/kg body weight and blood samples were taken at different time points and the concentration of the VHH constructs were determined using an ELISA on immobilized hIGF2R-ECD. […] To further confirm the functionality of the ABD, biodistribution of F11E8-ABD and F11E8 were assessed by means of Positron Emission Tomography (PET). In brief, the constructs were radio-labelled with the positron emitter ^89Zr-desferral according to Verel et al (J Nucl Med. 2003; 44:1271-1281), and administered intravenously to rats after which biodistribution was assessed on subsequent time points by whole-body PET.
# [2] = system: primary activated rat hepatic stellate cells (HSCs); test: Binding to primary activated rat hepatic stellate cells; format: cell-based; conditions: Alexa Fluor 488 conjugate; HSCs from BDL rat, 6 days in culture
# From the text: The cross-reactivity of F11-E8-ABD was further evaluated in binding experiments to primary activated rat hepatic stellate cells (HSCs). For this, the construct was conjugated to Alexa Fluor 488 according to the methods described in example 10.2. Activated HSCs were obtained from a perfused liver of a cirrhotic bile duct ligated (BDL) rat through density gradient centrifugation. Cells were kept in culture for 6 days to allow complete activation. […] Simultaneously, binding of the VHH construct to the activated cells was evident, further confirming species cross-reactivity of the construct.
# [3] = Biodistribution by whole-body PET of 89Zr-labelled constructs; format: in vivo; conditions: 89Zr-desferral labelled, i.v., rats
# Procedure: as §1
# [4] = system: mock transfected NIH 3T3 2.2 cells; test: Internalization by fluorescence microscopy after acid wash, mock transfected cells; format: cell-based; conditions: 25 nM Alexa fluor 647 conjugate, negative control cells
# Procedure: (§2) First, Alexa fluor 647-conjugates of the VHH 13F11 and the biparatopic VHH construct […] were added to A549 cells that endogenously express hIGF2R (FIG. 16A), NIH 3T3 2.2 cells that were transiently transfected with hIGF2R (FIG. 16B), or mock transfected NIH 3T3 2.2 cells (as a negative control). For this, the cells were incubated with 25 nM of the VHH or the VHH construct. Before fluorescent microscopy readout, to ensure that only signal of internalized VHH or mouse anti-IGF2R was present, an acid wash (0.2M glycine-HCl, 150 mM NaCl, pH 2.3) was used to remove VHH or mouse anti-IGF2R bound to the target receptors on the cell surface. The efficiency of the acid wash procedure was verified by incubating the hIGF2R transfected NIH 3T3 2.2 cells with 13F11-13E8-A647 on ice and subsequently treating these cells with an acid wash while remaining on ice to prevent internalization (FIG. 16D). […] Summarizing, biparatopic 13F11-13E8 clearly internalizes in cells expressing hIGF2R on the cell surface.
# [5] = system: SCC cells expressing mIGF2R; test: Kinetic internalization assay on SCC cells expressing mIGF2R; format: cell-based, murine; conditions: IRDye800 conjugates, FIG. 17C left panel
# Procedure: (§3) The rate of internalization (endocytic rate constant, ke) of biparatopic constructs 13F11-13E8 and 13E8-13F11 was determined with a kinetic internalization assay on SCC-hIGF2R and SCC-rIGF2R cells. Briefly, 10 nM of IRD800CW conjugated 13F11-13E8 or 13E8-13F11 (conjugation method as described in example 10.2) was added to hIGF2R expressing SCC cells or rIGF2R expressing SCC cells and incubated at 37° C. for different time points up to 12 minutes. Internalization was then purposely halted by putting the cells on ice. Subsequently, cells were washed with cold PBS and the non-internalized VHH construct (bound fraction) was separated from the internalized construct (internalized fraction) using an acid-wash, as described above, after which the fluorescence of both fractions were measured. Both constructs internalize with similar endocytic rate constants in SCC-hIGF2R cells (ke around 1.5 min-1) and in SCC-rIGF2R cells (ke around 0.7 min-1) (FIGS. 17A and B, respectively).
# (§4) Internalization of 13F11-13E8 and the corresponding monomeric VHHs 13F11 and 13E8 was assessed in a similar assay (FIG. 17A-C).
# [6] = system: SCC-rIGF2R cells; test: Kinetic internalization assay on SCC-rIGF2R cells; format: cell-based, rat
# Procedure: as §3, §4
# [7] = system: SCC-hIGF2R cells; test: Kinetic internalization assay on SCC-hIGF2R cells; format: cell-based, human
# Procedure: as §3, §4
# [8] = system: A549 cells that endogenously express hIGF2R; test: Internalization by fluorescence microscopy after acid wash, A549 cells; format: cell-based, human; conditions: 25 nM Alexa fluor 647 conjugate
# Procedure: as §2
# [9] = system: NIH 3T3 2.2 cells that were transiently transfected with hIGF2R; test: Internalization by fluorescence microscopy after acid wash, hIGF2R-transfected NIH 3T3 2.2 cells; format: cell-based, human; conditions: 25 nM Alexa fluor 647 conjugate
# Procedure: as §2
# [10] = system: LX2 cells (an activated hepatic stellate cell line); test: Live imaging of internalization with pHrodo-red conjugates in LX2 cells; format: cell-based, human; conditions: 50 nM pHrodo-red conjugate
# From the text: Internalization of monovalent 13F11 and biparatopics 13F11-13E8 and 13E8-13F11 was finally assessed in LX2 cells (an activated hepatic stellate cell line). For live imaging of internalization, the pH dependent Phrodo probe was used (ThermoFisher Scientific). This pH dependent probe becomes more fluorescent at acidic pH. Endosomes and lysosomes have a pH maintained at 6.5 and 4.5, respectively, compared to cytoplasmic pH of 7.0, and thus internalization of a VHH-pHrodo construct can be visualized when it internalizes via the endosomal pathway. LX-2 cells were incubated at 37° C. for 2 hours with 50 nM of pHrodo-red conjugated 13F11, 13F11-13E8 and 13E8-13F11 (conjugation method as described in example 10.2). Images were taken at 5 min. intervals using a wide-field PEXScope microscope (Nikon) with a mCherry filter and 40× oil objective.
# [11] = biological target: hPDGFRB-ECD (Homo sapiens, UniProt P09619); test: Binding assay on hPDGFRB-ECD; conditions: biparatopic constructs, FIG. 15A
# Chain of hPDGFRB-ECD (P09619 33-532 limits assumed): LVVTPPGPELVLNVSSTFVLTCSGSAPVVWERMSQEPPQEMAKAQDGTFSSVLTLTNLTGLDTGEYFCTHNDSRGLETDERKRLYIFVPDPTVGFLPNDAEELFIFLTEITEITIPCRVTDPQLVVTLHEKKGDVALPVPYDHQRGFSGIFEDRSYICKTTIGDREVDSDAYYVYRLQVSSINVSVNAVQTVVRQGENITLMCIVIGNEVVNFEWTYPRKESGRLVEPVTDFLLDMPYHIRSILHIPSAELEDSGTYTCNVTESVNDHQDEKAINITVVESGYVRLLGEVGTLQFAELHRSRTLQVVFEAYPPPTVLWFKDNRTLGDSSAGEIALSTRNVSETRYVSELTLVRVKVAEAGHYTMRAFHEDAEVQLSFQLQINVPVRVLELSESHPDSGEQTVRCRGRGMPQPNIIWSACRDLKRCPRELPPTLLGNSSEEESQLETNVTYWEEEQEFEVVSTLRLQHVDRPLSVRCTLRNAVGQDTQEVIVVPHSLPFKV
# Procedure: The 15 unique hIGF2R-binding VHH (Example 2.1, FIG. 2) were produced and purified as described in examples 3 and 4. The apparent affinities were determined through binding assay on immobilized hIGF2R-ECD. Briefly, three-fold serial dilution series, starting from 1 μM, of each VHH were plated onto hIGF2R-ECD coated plates. VHH were allowed to bind for two hours after which plates were washed. Then, bound VHH was detected using a VHH-specific IgG antibody, followed by an IRD800CW-conjugated IgG-specific antibody. Plates were read out by fluorimetry.
# The 18 unique hPDGFRB binders from libraries 1 and 2, and the 11 unique rPDGFRB binders from libraries 3 and 4 (Example 2.2, FIGS. 5 and 6) were produced and purified as described in examples 3 and 4. Then, the apparent affinities were determined with binding assays on hPDGFRB-ECD and rPDGFRB-ECD, respectively, the setup described in example 5.1. Results are summarized in FIGS. 5 and 6 for the hPDGFRB and rPDGFRB VHHs, respectively.
# (§5) Based on their high affinity and binding to non-overlapping hPDGRB epitopes, various biparatopic constructs were prepared based on VHHs SP02P, SP12P SP14P, SP26P and SP28P. The constructs were produced as described in example 7.1. and subjected to binding assay.
# As Shown in FIG. 15C), the binding affinity of this construct for both hPDGFRB and rPDGFRB are below 5 nM. […]
# [12] = biological target: T1, hPDGFRB (SCC-hPDGFRB cells) (Homo sapiens, UniProt P09619); test: Binding to cells transgenically expressing human PDGFRB
# T1 construct: SCC VII cells transgenically expressing full-length human PDGFRB (SCC-hPDGFRB); expressed in transfected cells; host or cells: murine SCC VII cells
# T1 sequence (P09619 33-1106): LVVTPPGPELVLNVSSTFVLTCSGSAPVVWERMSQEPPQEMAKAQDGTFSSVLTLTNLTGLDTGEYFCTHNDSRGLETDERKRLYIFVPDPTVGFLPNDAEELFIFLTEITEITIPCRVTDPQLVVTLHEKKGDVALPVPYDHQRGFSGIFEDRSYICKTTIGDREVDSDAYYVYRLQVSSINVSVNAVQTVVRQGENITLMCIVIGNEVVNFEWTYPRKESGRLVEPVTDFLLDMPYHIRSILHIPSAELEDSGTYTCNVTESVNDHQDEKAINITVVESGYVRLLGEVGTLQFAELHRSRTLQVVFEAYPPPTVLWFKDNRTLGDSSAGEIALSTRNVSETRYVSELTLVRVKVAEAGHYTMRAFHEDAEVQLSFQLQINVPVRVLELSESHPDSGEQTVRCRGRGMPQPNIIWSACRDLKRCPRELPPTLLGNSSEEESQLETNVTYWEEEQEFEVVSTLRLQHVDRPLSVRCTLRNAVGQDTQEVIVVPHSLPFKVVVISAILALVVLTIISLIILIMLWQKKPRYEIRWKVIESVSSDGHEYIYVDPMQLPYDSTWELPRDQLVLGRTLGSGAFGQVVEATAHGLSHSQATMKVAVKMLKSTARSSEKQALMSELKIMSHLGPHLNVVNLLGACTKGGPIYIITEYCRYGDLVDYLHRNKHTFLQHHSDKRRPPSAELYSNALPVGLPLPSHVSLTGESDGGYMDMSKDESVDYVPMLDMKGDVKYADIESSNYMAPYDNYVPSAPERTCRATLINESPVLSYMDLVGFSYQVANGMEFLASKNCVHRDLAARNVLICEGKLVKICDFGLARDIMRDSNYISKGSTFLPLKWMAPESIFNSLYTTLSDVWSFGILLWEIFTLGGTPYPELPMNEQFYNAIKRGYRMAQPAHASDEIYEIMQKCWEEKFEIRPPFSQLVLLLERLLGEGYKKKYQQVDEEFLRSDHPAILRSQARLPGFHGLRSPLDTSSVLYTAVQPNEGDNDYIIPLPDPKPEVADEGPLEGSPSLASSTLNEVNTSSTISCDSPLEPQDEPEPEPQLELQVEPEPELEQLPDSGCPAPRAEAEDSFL
# Procedure: (§6) High affine binders to hPDGFRB-ECD or rPDGFRB-ECD were subsequently assessed for binding to SCC VII cells transfected with hPDGFRB and rPDGFRB, respectively.
# as §5
# (§7) As Shown in FIG. 15C), the binding affinity of this construct for both hPDGFRB and rPDGFRB are below 5 nM. […] These observations make SP02P (or similar VHH) and SP26P (or similar VHH) particularly promising for use in the present invention.
# [13] = biological target: T2, rPDGFRB (SCC-rPDGFRB cells) (Rattus norvegicus, UniProt Q05030); test: Binding to cells transgenically expressing rat PDGFRB
# T2 construct: SCC VII cells transgenically expressing full-length rat PDGFRB (SCC-rPDGFRB); expressed in transfected cells; host or cells: murine SCC VII cells
# T2 sequence (Q05030 32-1097): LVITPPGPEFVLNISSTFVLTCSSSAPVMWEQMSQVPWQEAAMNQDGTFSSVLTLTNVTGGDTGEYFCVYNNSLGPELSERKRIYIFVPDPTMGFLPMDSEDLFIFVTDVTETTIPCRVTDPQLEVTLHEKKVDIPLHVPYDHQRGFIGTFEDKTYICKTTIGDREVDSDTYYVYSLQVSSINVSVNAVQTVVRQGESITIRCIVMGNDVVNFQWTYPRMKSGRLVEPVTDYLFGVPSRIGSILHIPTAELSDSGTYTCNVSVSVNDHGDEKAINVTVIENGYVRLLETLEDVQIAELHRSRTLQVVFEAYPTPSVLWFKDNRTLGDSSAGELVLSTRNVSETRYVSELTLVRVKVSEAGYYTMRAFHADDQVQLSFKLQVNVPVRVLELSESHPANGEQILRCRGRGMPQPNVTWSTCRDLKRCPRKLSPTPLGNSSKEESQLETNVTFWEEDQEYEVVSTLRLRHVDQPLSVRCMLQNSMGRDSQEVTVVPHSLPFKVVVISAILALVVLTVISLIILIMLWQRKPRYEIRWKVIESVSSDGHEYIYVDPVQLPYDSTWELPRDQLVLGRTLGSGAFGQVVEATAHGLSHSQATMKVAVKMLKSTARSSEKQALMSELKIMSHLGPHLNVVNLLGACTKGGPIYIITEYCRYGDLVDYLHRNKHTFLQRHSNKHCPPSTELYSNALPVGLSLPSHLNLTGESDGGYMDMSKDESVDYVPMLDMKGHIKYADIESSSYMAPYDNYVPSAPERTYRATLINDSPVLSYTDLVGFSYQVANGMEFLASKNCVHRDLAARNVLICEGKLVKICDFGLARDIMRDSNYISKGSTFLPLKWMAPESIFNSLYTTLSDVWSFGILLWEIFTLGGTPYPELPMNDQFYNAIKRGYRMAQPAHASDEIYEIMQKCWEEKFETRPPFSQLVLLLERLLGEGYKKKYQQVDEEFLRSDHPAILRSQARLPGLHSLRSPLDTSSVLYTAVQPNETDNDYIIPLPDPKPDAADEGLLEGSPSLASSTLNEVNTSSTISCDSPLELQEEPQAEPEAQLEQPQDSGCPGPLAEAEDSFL
# Procedure: as §6, §5, §7
# [14] = 10 nM IRD800CW conjugate, 37° C., up to 12 minutes
affinity for hPDGFRB [11],affinity for hPDGFRB on cells [12],affinity for rPDGFRB on cells [13],Molecule,"infused dose still in circulation ([1]; one hour after dosing, approximately 20 nmoles infused, estimated serum volume 10 mL)","Cmax ([1]; rats, i.v., approximately 3 mg/kg, read-out: peak serum level (Cmax)) [nM]",binding to activated HSCs [2],biodistribution (PET) [3],internalization [4],internalization compared to the monomeric VHHs [5],"clearance from circulation / detectability in serum ([1]; rats, i.v., approximately 3 mg/kg, ELISA LOD approximately 20 nM)","endocytic rate constant, ke [6, 14]","internalization compared to the monomeric VHHs ([6]; IRDye800 conjugates, FIG. 17C middle panel)","endocytic rate constant, ke [7, 14]","internalization compared to the monomeric VHHs ([7]; IRDye800 conjugates, FIG. 17C right panel)",internalization [8],internalization [9],intracellular localisation of internalized construct [10],"increase in intracellular fluorescence (internalization) ([10]; 37° C., compared to monovalent 13F11 / between biparatopics)"
–,–,–,"13F11-13E8-ABD: 13F11-13E8 re-engineered to include an albumin binding domain (ABD) as half-life extender (protein, left off: large carriers; small tags and cut ends) EVQLVESGGRLVQPGDSLRLSCAASGRTFSDNAMGWFRQAPGKERRFVAGISWAGGSTYYSDSVKGRFTISRDNAKNTVYLQMNSLKPEDTAVYYCAAGLRAWVQRMPKDYNYWGQGTQVTVSSGGGGSGGGGSGGGGSEVQLVESGGGLVQAGGSLRLSCAASRSISPMGWYRQAPGKQRELVAIMPSSGPPIYADSVQGRFTISRDNAKNTVYLQMNSLKPEDTAVYYCNVGGGYWGQGTQVTVSS",approximately 50%,> 1000,evident,accumulate in the liver,–,–,–,–,–,–,–,–,–,–,–
–,–,–,"13F11-13E8: biparatopic IGF2R VHH construct, 13F11 and 13E8 fused with (Gly-Gly-Gly-Gly-Ser)3 linker, C-terminal cysteine (protein, left off: small tags and cut ends, biparatopic IGF2R VHH construct, 13F11 and 13E8 fused with (Gly-Gly-Gly-Gly-Ser)3 linker, C-terminal cysteine) EVQLVESGGRLVQPGDSLRLSCAASGRTFSDNAMGWFRQAPGKERRFVAGISWAGGSTYYSDSVKGRFTISRDNAKNTVYLQMNSLKPEDTAVYYCAAGLRAWVQRMPKDYNYWGQGTQVTVSSGGGGSGGGGSGGGGSEVQLVESGGGLVQAGGSLRLSCAASRSISPMGWYRQAPGKQRELVAIMPSSGPPIYADSVQGRFTISRDNAKNTVYLQMNSLKPEDTAVYYCNVGGGYWGQGTQVTVSS",–,–,–,swiftly accumulated in the kidneys,no internalization was observed,superior internalization,could not be detected anymore within two hours after injection,around 0.7 min-1,superior internalization,around 1.5 min-1,superior internalization,clearly internalized,superior internalization,accumulate into perinuclear compartments (endosomes/lysosomes),higher rate of internalization
lowest affinity,low affinity,high affinity,"SP26P-SP28P: biparatopic construct based on VHH raised against rPDGFRB (protein, left off: small tags and cut ends, biparatopic construct based on VHH raised against rPDGFRB) EVQLVESGGGLVQAGGSLRLSCAASGSIVSFNGINWYRQAPGKQREWVGGITQGGNTMYADSVRGRFTISRDNTKNTMYLQMNSLKPEDTAVYYCRRPPVASWGQGTQVTVSSGGGGSGGGGSGGGGSEVQLVESGGGLVQAGGSLRLSCAASGRSFSSSVMGWFRQTPGKEREFVAATRWTAASTHYADSVKGRFTISRDHAENAVFLQMNSLKPEDTAVYYCAAGNYLDTAQYRYNYWGQGTQVTVSS",–,–,–,–,–,–,–,–,–,–,–,–,–,–,–
